Measured values taken from PMC5490192, “An L-threonine transaldolase is required for L-threo-β-hydroxy-α-amino acid assembly during obafluorin biosynthesis” (Nature Communications, 2017).

Tests used:
His6-ObaG = biological target: T1, His6-ObaG (Pseudomonas fluorescens, UniProt A0A1X9LWZ7); assay: UV/Vis absorption spectra; NaBH4 reduction of internal aldimine; type: binding; details: covalent (internal aldimine); pH 7.8; excess PLP removed
T1 construct: gene obiH
T1 sequence (A0A1X9LWZ7 1-440): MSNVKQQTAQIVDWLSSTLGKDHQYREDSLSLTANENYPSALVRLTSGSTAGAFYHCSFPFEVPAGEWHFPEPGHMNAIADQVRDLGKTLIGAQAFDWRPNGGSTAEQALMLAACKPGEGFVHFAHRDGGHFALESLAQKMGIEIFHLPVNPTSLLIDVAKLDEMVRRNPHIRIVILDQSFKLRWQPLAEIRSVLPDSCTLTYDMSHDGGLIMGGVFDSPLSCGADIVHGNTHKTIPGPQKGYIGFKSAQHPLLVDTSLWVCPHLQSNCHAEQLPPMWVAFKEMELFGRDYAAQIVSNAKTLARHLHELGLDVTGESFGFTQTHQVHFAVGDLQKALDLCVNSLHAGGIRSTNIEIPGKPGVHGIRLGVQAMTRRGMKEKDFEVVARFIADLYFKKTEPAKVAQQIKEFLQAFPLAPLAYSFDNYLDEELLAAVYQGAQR

[1] = substrate: C[C@@H](O)[C@H](N)C(=O)O; assay: discontinuous HPLC L-TTA assay, Michaelis-Menten fit; type: biochemical, Pseudomonas fluorescens; details: co-substrate 4-nitrophenylacetaldehyde (10 mM in standard assay), L-threonine 1–200 mM, 25 μM enzyme, pH 7.8, 27 °C, PLP 0.4 mM, MgCl2 15 mM, NaCl 300 mM

Molecule	UV/Vis absorption spectra; NaBH4 reduction of internal aldimine (His6-ObaG)	Km [1] [mM]	kcat [1] [s⁻¹]
Cc1ncc(COP(=O)(O)O)c(C=O)c1O [pyridoxal-5′-phosphate]	these results strongly support ObaG being a PLP-dependent enzyme		
His6-ObaG (Pseudomonas fluorescens) (protein) MSNVKQQTAQIVDWLSSTLGKDHQYREDSLSLTANENYPSALVRLTSGSTAGAFYHCSFPFEVPAGEWHFPEPGHMNAIADQVRDLGKTLIGAQAFDWRPNGGSTAEQALMLAACKPGEGFVHFAHRDGGHFALESLAQKMGIEIFHLPVNPTSLLIDVAKLDEMVRRNPHIRIVILDQSFKLRWQPLAEIRSVLPDSCTLTYDMSHDGGLIMGGVFDSPLSCGADIVHGNTHKTIPGPQKGYIGFKSAQHPLLVDTSLWVCPHLQSNCHAEQLPPMWVAFKEMELFGRDYAAQIVSNAKTLARHLHELGLDVTGESFGFTQTHQVHFAVGDLQKALDLCVNSLHAGGIRSTNIEIPGKPGVHGIRLGVQAMTRRGMKEKDFEVVARFIADLYFKKTEPAKVAQQIKEFLQAFPLAPLAYSFDNYLDEELLAAVYQGAQR		40.2 ± 3.8	1.05 ± 0.0317
